Assay [1] has as its target T1, FcγRIa extracellular domain with C-terminal His tag (human, UniProt P12314 16-292).
T1 construct: extracellular domain; Expressed in FreeStyle293 cells; analyte in the Biacore assay; also called FcgRI; 1a; not shown: His tag at the C terminus
In words: SPR (Biacore), antibody captured on antigen-peptide chip, FcγR as analyte; relative binding.
T1 sequence (P12314 16-292): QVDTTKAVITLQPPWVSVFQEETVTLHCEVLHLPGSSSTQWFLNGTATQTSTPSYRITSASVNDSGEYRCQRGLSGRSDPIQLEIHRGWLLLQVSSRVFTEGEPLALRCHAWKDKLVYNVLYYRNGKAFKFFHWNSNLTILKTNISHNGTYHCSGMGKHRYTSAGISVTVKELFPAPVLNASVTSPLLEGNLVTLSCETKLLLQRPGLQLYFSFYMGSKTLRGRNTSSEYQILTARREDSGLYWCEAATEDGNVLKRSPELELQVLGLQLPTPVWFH

In assay [2] the target is T2, FcγRIIb extracellular domain with C-terminal His tag (human, UniProt P31994 43-217).
T2 construct: extracellular domain; Expressed in FreeStyle293 cells; analyte in the Biacore assay; also called FcgRIIb; 2b; not shown: His tag at the C terminus
T2 sequence (looked up): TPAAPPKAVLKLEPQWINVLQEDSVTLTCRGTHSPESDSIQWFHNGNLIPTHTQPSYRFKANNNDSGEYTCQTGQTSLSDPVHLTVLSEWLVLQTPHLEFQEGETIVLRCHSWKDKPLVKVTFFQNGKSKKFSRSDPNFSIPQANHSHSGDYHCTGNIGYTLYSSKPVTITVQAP
Described as above.

Assay [3] has as its target T3, FcγRIa extracellular domain with C-terminal His tag (human, UniProt P12314 16-292).
T3 construct: extracellular domain; Soluble receptor expressed in FreeStyle293 cells and used as analyte in Biacore; also called FcgRI; 1a; not shown: His tag at the C terminus
In words: SPR Biacore, relative binding amount.
T3 sequence (P12314 16-292): as the sequence (P12314 16-292) above

The target of assay [4] is T4, FcγRIIb extracellular domain with C-terminal His tag (human, UniProt P31994 43-217).
T4 construct: extracellular domain; Soluble receptor expressed in FreeStyle293 cells and used as analyte in Biacore; also called FcgRIIb; 2b; not shown: His tag at the C terminus
T4 sequence (looked up): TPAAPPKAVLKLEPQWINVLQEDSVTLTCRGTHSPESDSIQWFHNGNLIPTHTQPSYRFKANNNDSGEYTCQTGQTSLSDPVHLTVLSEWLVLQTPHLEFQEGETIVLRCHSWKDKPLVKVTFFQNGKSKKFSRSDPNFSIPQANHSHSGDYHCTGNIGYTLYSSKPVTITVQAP
In words: SPR Biacore, relative binding amount. On the technique in general: Surface plasmon resonance follows binding to a sensor surface in real time, without labels.

B1: GpH7-A5/GpH7-B3 variant Y300_06M/GpL16-k0 (He Ab) (antibody, human IgG1, kappa)
heavy 1: not shown
heavy 2: not shown
light: DIVMTQSPLSLPVTPGEPASISCQASESLVHSNRNTYLHWYLQKPGQSPQLLIYKVSNRFSGVPDRFSGSGSGTDFTLKISRVEAEDVGVYYCSQNTHVPPTFGQGTKVEIERTVAAPSVFIFPPSDEQLKSGTASVVCLLNNFYPREAKVQWKVDNALQSGNSQESVTEQDSKDSTYSLSSTLTLSKADYEKHKVYACEVTHQGLSSPVTKSFNRGEC
notes: Heterodimerized anti-glypican-3 IgG1; the mutation stands in the GpH7-B3 chain only
Consider B1, for which, in assay [1], the He/Con_1a is 112 % of GpH7-A5/GpH7-B3/GpL16-k0 (=100). For the same molecule, in assay [2], the He/Con_2b is 84.3 % of GpH7-A5/GpH7-B3/GpL16-k0 (=100).

B2: GpH7-A5/GpH7-B3 variant Y300_13S/GpL16-k0 (He Ab) (antibody, human IgG1, kappa)
heavy 1: not shown
heavy 2: not shown
light: DIVMTQSPLSLPVTPGEPASISCQASESLVHSNRNTYLHWYLQKPGQSPQLLIYKVSNRFSGVPDRFSGSGSGTDFTLKISRVEAEDVGVYYCSQNTHVPPTFGQGTKVEIERTVAAPSVFIFPPSDEQLKSGTASVVCLLNNFYPREAKVQWKVDNALQSGNSQESVTEQDSKDSTYSLSSTLTLSKADYEKHKVYACEVTHQGLSSPVTKSFNRGEC
notes: as for B1
Turning to B2, the He/Con_1a in assay [1] is 111 % of GpH7-A5/GpH7-B3/GpL16-k0 (=100). Moreover, the He/Con_2b in assay [2] is 53.9 % of GpH7-A5/GpH7-B3/GpL16-k0 (=100).

B3: GpH7-A5/GpH7-B3 variant Y300_16H/GpL16-k0 (He Ab) (antibody, human IgG1, kappa)
heavy 1: not shown
heavy 2: not shown
light: DIVMTQSPLSLPVTPGEPASISCQASESLVHSNRNTYLHWYLQKPGQSPQLLIYKVSNRFSGVPDRFSGSGSGTDFTLKISRVEAEDVGVYYCSQNTHVPPTFGQGTKVEIERTVAAPSVFIFPPSDEQLKSGTASVVCLLNNFYPREAKVQWKVDNALQSGNSQESVTEQDSKDSTYSLSSTLTLSKADYEKHKVYACEVTHQGLSSPVTKSFNRGEC
notes: as for B1
Turning to B3, the He/Con_1a in assay [1] was 111 % of GpH7-A5/GpH7-B3/GpL16-k0 (=100). The He/Con_2b in assay [2] was 87 % of GpH7-A5/GpH7-B3/GpL16-k0 (=100).

B4: heterodimerized antibody GpH7-A5/GpH7-B3 variant E333_08L/GpL16-k0 (antibody, human IgG1, kappa)
heavy 1: not shown
heavy 2: not shown
light: DIVMTQSPLSLPVTPGEPASISCQASESLVHSNRNTYLHWYLQKPGQSPQLLIYKVSNRFSGVPDRFSGSGSGTDFTLKISRVEAEDVGVYYCSQNTHVPPTFGQGTKVEIERTVAAPSVFIFPPSDEQLKSGTASVVCLLNNFYPREAKVQWKVDNALQSGNSQESVTEQDSKDSTYSLSSTLTLSKADYEKHKVYACEVTHQGLSSPVTKSFNRGEC
notes: Substitution in only one H chain (GpH7-B3 side); also called He Ab
With B4, the He/Con_1a in assay [3] was 102 % of GpH7-A5/GpH7-B3/GpL16-k0 (=100). Moreover, the He/Con_2b in assay [4] is 95 % of GpH7-A5/GpH7-B3/GpL16-k0 (=100).

B5: GpH7-A5/GpH7-B3 variant Y300_07I/GpL16-k0 (He Ab) (antibody, human IgG1, kappa)
heavy 1: not shown
heavy 2: not shown
light: DIVMTQSPLSLPVTPGEPASISCQASESLVHSNRNTYLHWYLQKPGQSPQLLIYKVSNRFSGVPDRFSGSGSGTDFTLKISRVEAEDVGVYYCSQNTHVPPTFGQGTKVEIERTVAAPSVFIFPPSDEQLKSGTASVVCLLNNFYPREAKVQWKVDNALQSGNSQESVTEQDSKDSTYSLSSTLTLSKADYEKHKVYACEVTHQGLSSPVTKSFNRGEC
notes: as for B1
In the case of B5, the He/Con_1a in assay [1] was 108 % of GpH7-A5/GpH7-B3/GpL16-k0 (=100). The He/Con_2b in assay [2] was 74.5 % of GpH7-A5/GpH7-B3/GpL16-k0 (=100).

B6: heterodimerized antibody GpH7-A5/GpH7-B3 variant E333_16H/GpL16-k0 (antibody, human IgG1, kappa)
heavy 1: not shown
heavy 2: not shown
light: DIVMTQSPLSLPVTPGEPASISCQASESLVHSNRNTYLHWYLQKPGQSPQLLIYKVSNRFSGVPDRFSGSGSGTDFTLKISRVEAEDVGVYYCSQNTHVPPTFGQGTKVEIERTVAAPSVFIFPPSDEQLKSGTASVVCLLNNFYPREAKVQWKVDNALQSGNSQESVTEQDSKDSTYSLSSTLTLSKADYEKHKVYACEVTHQGLSSPVTKSFNRGEC
notes: as for B4
Take B6: the He/Con_1a in assay [3] was 101 % of GpH7-A5/GpH7-B3/GpL16-k0 (=100). For the same molecule, the He/Con_2b in assay [4] is 83.3 % of GpH7-A5/GpH7-B3/GpL16-k0 (=100).

B7: heterodimerized antibody GpH7-A5/GpH7-B3 variant E333_12R/GpL16-k0 (antibody, human IgG1, kappa)
heavy 1: not shown
heavy 2: not shown
light: DIVMTQSPLSLPVTPGEPASISCQASESLVHSNRNTYLHWYLQKPGQSPQLLIYKVSNRFSGVPDRFSGSGSGTDFTLKISRVEAEDVGVYYCSQNTHVPPTFGQGTKVEIERTVAAPSVFIFPPSDEQLKSGTASVVCLLNNFYPREAKVQWKVDNALQSGNSQESVTEQDSKDSTYSLSSTLTLSKADYEKHKVYACEVTHQGLSSPVTKSFNRGEC
notes: as for B4
With B7, the He/Con_1a in assay [3] is 102 % of GpH7-A5/GpH7-B3/GpL16-k0 (=100). The He/Con_2b in assay [4] was 80.4 % of GpH7-A5/GpH7-B3/GpL16-k0 (=100).

B8: heterodimerized antibody GpH7-A5/GpH7-B3 variant E333_09D/GpL16-k0 (antibody, human IgG1, kappa)
heavy 1: not shown
heavy 2: not shown
light: DIVMTQSPLSLPVTPGEPASISCQASESLVHSNRNTYLHWYLQKPGQSPQLLIYKVSNRFSGVPDRFSGSGSGTDFTLKISRVEAEDVGVYYCSQNTHVPPTFGQGTKVEIERTVAAPSVFIFPPSDEQLKSGTASVVCLLNNFYPREAKVQWKVDNALQSGNSQESVTEQDSKDSTYSLSSTLTLSKADYEKHKVYACEVTHQGLSSPVTKSFNRGEC
notes: as for B4
Consider B8, for which the He/Con_1a in assay [3] is 104 % of GpH7-A5/GpH7-B3/GpL16-k0 (=100). In assay [4], the He/Con_2b was 94.3 % of GpH7-A5/GpH7-B3/GpL16-k0 (=100).

B9: heterodimerized antibody GpH7-A5/GpH7-B3 variant E333_15Y/GpL16-k0 (antibody, human IgG1, kappa)
heavy 1: not shown
heavy 2: not shown
light: DIVMTQSPLSLPVTPGEPASISCQASESLVHSNRNTYLHWYLQKPGQSPQLLIYKVSNRFSGVPDRFSGSGSGTDFTLKISRVEAEDVGVYYCSQNTHVPPTFGQGTKVEIERTVAAPSVFIFPPSDEQLKSGTASVVCLLNNFYPREAKVQWKVDNALQSGNSQESVTEQDSKDSTYSLSSTLTLSKADYEKHKVYACEVTHQGLSSPVTKSFNRGEC
notes: as for B4
As for B9, in assay [3], the He/Con_1a was 101 % of GpH7-A5/GpH7-B3/GpL16-k0 (=100). The He/Con_2b in assay [4] is 94.4 % of GpH7-A5/GpH7-B3/GpL16-k0 (=100).

The record behind these values is US20180155451A1 (published 2018).
